Source: US20230140293A1

Experiments:
Assay in all cases: cell-based or functional assay
[1] = target: HIV-1 Env 426c.SM (N276D), Env-pseudotyped virus produced in 293T cells (HIV-1 clade C strain 426c)
[2] = target: CH0505TF.gly3.197 Env, Env-pseudotyped virus produced in 293T cells (HIV-1)
[3] = target: CH0505TF.G458Y Env, Env-pseudotyped virus produced in 293S GnTI- cells (Man5-enriched) (HIV-1)
[4] = target: HIV-1 Env 426c.TM4 (S278R.G471S.N460D.N463D), Env-pseudotyped virus produced in 293T cells (HIV-1 clade C strain 426c)
[5] = target: HIV-1 Env 426c, Env-pseudotyped virus produced in 293T cells (HIV-1 clade C strain 426c)
[6] = target: HIV-1 426c.SM (N276D) Env on Env-pseudotyped virus produced in 293T cells (HIV-1)
[7] = target: HIV-1 Env 426c.SM (N276D), Env-pseudotyped virus produced in 293S GnTI- cells (Man5-enriched) (HIV-1 clade C strain 426c)
[8] = target: CH0505TF.G458Y Env, Env-pseudotyped virus produced in 293T cells (HIV-1)
[9] = target: CH0505TF.gly4 Env, Env-pseudotyped virus produced in 293S GnTI- cells (Man5-enriched) (HIV-1)
[10] = target: CH0505TF.gly3.461 Env, Env-pseudotyped virus produced in 293T cells (HIV-1)
[11] = target: CH0505TF Env, Env-pseudotyped virus produced in 293S GnTI- cells (Man5-enriched) (HIV-1)
[12] = target: CH0505TF.gly3.197 Env, Env-pseudotyped virus produced in 293S GnTI- cells (Man5-enriched) (HIV-1)
[13] = target: CH0505TF.gly3.276 Env, Env-pseudotyped virus produced in 293S GnTI- cells (Man5-enriched) (HIV-1)
[14] = target: HIV-1 426c.DM (N460D/N463D) Env on Env-pseudotyped virus produced in 293s/GnTI-/- cells (Man5-enrichment) (HIV-1)
[15] = target: HIV-1 clade C strain 426c Env on Env-pseudotyped virus produced in 293T cells (HIV-1)
[16] = target: HIV-1 clade C strain 426c Env on Env-pseudotyped virus produced in 293s/GnTI-/- cells (Man5-enrichment) (HIV-1)
[17] = target: CH0505TF.gly3.461 Env, Env-pseudotyped virus produced in 293S GnTI- cells (Man5-enriched) (HIV-1)
[18] = target: HIV-1 Env 426c, Env-pseudotyped virus produced in 293S GnTI- cells (Man5-enriched) (HIV-1 clade C strain 426c)
[19] = target: HIV-1 426c.TM (N276D/N460D/N463D) Env on Env-pseudotyped virus produced in 293T cells (HIV-1)
[20] = target: HIV-1 426c.DM (N460D/N463D) Env on Env-pseudotyped virus produced in 293T cells (HIV-1)
[21] = target: HIV-1 Env 426c.DM (N460D.N463D), Env-pseudotyped virus produced in 293S GnTI- cells (Man5-enriched) (HIV-1 clade C strain 426c)
[22] = target: CH0505TF Env, Env-pseudotyped virus produced in 293T cells (HIV-1)
[23] = target: CH0505TF.gly3.276 Env, Env-pseudotyped virus produced in 293T cells (HIV-1)
[24] = target: HIV-1 426c.TM (N276D/N460D/N463D) Env on Env-pseudotyped virus produced in 293s/GnTI-/- cells (Man5-enrichment) (HIV-1)
[25] = target: HIV-1 Env 426c.TM4 (S278R.G471S.N460D.N463D), Env-pseudotyped virus produced in 293S GnTI- cells (Man5-enriched) (HIV-1 clade C strain 426c)
[26] = target: HIV-1 Env 426c.TM (N276D.N460D.N463D), Env-pseudotyped virus produced in 293T cells (HIV-1 clade C strain 426c)
[27] = target: HIV-1 Env 426c.TM (N276D.N460D.N463D), Env-pseudotyped virus produced in 293S GnTI- cells (Man5-enriched) (HIV-1 clade C strain 426c)
[28] = target: HIV-1 Env 426c.DM (N460D.N463D), Env-pseudotyped virus produced in 293T cells (HIV-1 clade C strain 426c)
[29] = target: HIV-1 426c.SM (N276D) Env on Env-pseudotyped virus produced in 293s/GnTI-/- cells (Man5-enrichment) (HIV-1)
[30] = target: CH0505.w4.3 Env, Env-pseudotyped virus produced in 293T cells (HIV-1)
[31] = target: CH0505TF.gly4 Env, Env-pseudotyped virus produced in 293T cells (HIV-1)

Row | Substance | IC50 (µg/ml) in TZM-bl [1] [µg/mL] | IC50 (µg/ml) in TZM-bl [2] [µg/mL] | IC50 (µg/ml) in TZM-bl [3] [µg/mL] | IC50 (µg/ml) in TZM-bl [4] [µg/mL] | IC50 (µg/ml) in TZM-bl [5] [µg/mL] | IC50 (µg/ml) in TZM-bl [7] [µg/mL] | IC50 (µg/ml) in TZM-bl [8] [µg/mL] | IC50 (µg/ml) in TZM-bl [9] [µg/mL] | IC50 (µg/ml) in TZM-bl [10] [µg/mL] | IC50 (µg/ml) in TZM-bl [11] [µg/mL] | IC50 (µg/ml) in TZM-bl [12] [µg/mL] | IC50 (µg/ml) in TZM-bl [13] [µg/mL] | IC50 (µg/ml) in TZM-bl [17] [µg/mL] | IC50 (µg/ml) in TZM-bl [18] [µg/mL] | IC50 (µg/ml) in TZM-bl [21] [µg/mL] | IC50 (µg/ml) in TZM-bl [22] [µg/mL] | IC50 (µg/ml) in TZM-bl [23] [µg/mL] | IC50 (µg/ml) in TZM-bl [25] [µg/mL] | IC50 (µg/ml) in TZM-bl [26] [µg/mL] | IC50 (µg/ml) in TZM-bl [27] [µg/mL] | also measured
1 | 2F5 (antibody) | > 25 | > 25 | > 25 | > 25 | > 25 | > 25 | > 25 | > 25 | > 25 | > 25 | > 25 | > 25 | > 25 | > 25 | > 25 | > 25 | > 25 | > 25 | > 25 | > 25 | ID50/IC50 in TZM-bl [6]: > 25 mg/L; ID50/IC50 in TZM-bl [14]: > 25 mg/L; ID50/IC50 in TZM-bl [15]: > 25 mg/L; ID50/IC50 in TZM-bl [16]: > 25 mg/L; ID50/IC50 in TZM-bl [19]: > 25 mg/L; ID50/IC50 in TZM-bl [20]: > 25 mg/L; ID50/IC50 in TZM-bl [24]: > 25 mg/L; IC50 (µg/ml) in TZM-bl [28]: > 25 µg/mL; ID50/IC50 in TZM-bl [29]: > 25 mg/L; IC50 (µg/ml) in TZM-bl [30]: > 25 µg/mL; IC50 (µg/ml) in TZM-bl [31]: > 25 µg/mL
2 | 2G12 (antibody) | > 25 | > 25 | > 25 | > 25 | > 25 | > 25 | > 25 | > 25 | > 25 | > 25 | > 25 | > 25 | > 25 | > 25 | > 25 | > 25 | > 25 | > 25 | > 25 | > 25 | ID50/IC50 in TZM-bl [6]: > 25 mg/L; ID50/IC50 in TZM-bl [14]: > 25 mg/L; ID50/IC50 in TZM-bl [15]: > 25 mg/L; ID50/IC50 in TZM-bl [16]: > 25 mg/L; ID50/IC50 in TZM-bl [19]: > 25 mg/L; ID50/IC50 in TZM-bl [20]: > 25 mg/L; ID50/IC50 in TZM-bl [24]: > 25 mg/L; IC50 (µg/ml) in TZM-bl [28]: > 25 µg/mL; ID50/IC50 in TZM-bl [29]: > 25 mg/L; IC50 (µg/ml) in TZM-bl [30]: > 50 µg/mL; IC50 (µg/ml) in TZM-bl [31]: > 25 µg/mL
3 | 10E8 (antibody) | 1.26 | 3.4 | 2.1 | 0.53 | 0.8 | 0.28 | 1.1 | 2.2 | 3.3 | 2.2 | 4 | 2.3 | 2.5 | 0.35 | 0.45 | 4.4 | 3.3 | 0.19 | 1.52 | 0.51 | IC50 (µg/ml) in TZM-bl [28]: 1.11 µg/mL; IC50 (µg/ml) in TZM-bl [30]: 1.1 µg/mL; IC50 (µg/ml) in TZM-bl [31]: 2.7 µg/mL
4 | PGDM1400 (antibody) | > 25 | 0.01 | 0.002 | > 5 | > 25 | > 5 | 0.006 | 0.007 | 0.04 | 0.007 | 0.003 | 0.004 | 0.008 | > 5 | > 5 | 0.006 | 0.02 | > 5 | > 25 | > 5 | ID50/IC50 in TZM-bl [6]: > 25 mg/L; ID50/IC50 in TZM-bl [14]: > 5 mg/L; ID50/IC50 in TZM-bl [15]: > 25 mg/L; ID50/IC50 in TZM-bl [16]: > 5 mg/L; ID50/IC50 in TZM-bl [19]: > 25 mg/L; ID50/IC50 in TZM-bl [20]: > 25 mg/L; ID50/IC50 in TZM-bl [24]: > 5 mg/L; IC50 (µg/ml) in TZM-bl [28]: > 25 µg/mL; ID50/IC50 in TZM-bl [29]: > 5 mg/L; IC50 (µg/ml) in TZM-bl [31]: 0.016 µg/mL
5 | VRC03 (antibody) |  |  |  | 0.003 |  | 0.003 |  |  |  |  |  |  |  | 0.014 | 0.005 |  |  | < 0.002 |  | 0.003 | 
6 | VRC04 (antibody) |  |  |  | 0.013 |  | 0.02 |  |  |  |  |  |  |  | 0.18 | 0.05 |  |  | < 0.002 |  | 0.01 | 
7 | VRC07 (antibody) |  |  |  | < 0.002 |  | 0.02 |  |  |  |  |  |  |  | 0.07 | 0.05 |  |  | < 0.002 |  | 0.009 | 
8 | VRC018 (antibody) |  |  |  | 0.005 |  | 0.01 |  |  |  |  |  |  |  | 0.06 | 0.02 |  |  | < 0.002 |  | 0.006 | 
9 | VRC20 (VRC-PG20) (antibody) |  |  |  | < 0.002 |  | 0.004 |  |  |  |  |  |  |  | 0.015 | 0.007 |  |  | 0.008 |  | 0.005 | 
10 | VRC23 (antibody) |  |  |  | 0.082 |  | 0.1 |  |  |  |  |  |  |  | 0.19 | 0.06 |  |  | < 0.002 |  | 3.1 | 
11 | VRC34.01 (antibody) | 0.06 | 2.1 | 0.03 | 0.13 | 0.08 | 0.07 | 0.21 | 0.14 | 0.84 | 0.1 | 0.17 | 0.14 | 0.17 | 0.05 | 0.04 | 0.55 | 0.62 | 0.07 | 0.08 | 0.07 | IC50 (µg/ml) in TZM-bl [28]: 0.09 µg/mL; IC50 (µg/ml) in TZM-bl [30]: > 25 µg/mL; IC50 (µg/ml) in TZM-bl [31]: 0.94 µg/mL
12 | VRC34.1 (antibody) |  |  |  |  |  |  |  |  |  |  |  |  |  |  |  |  |  |  |  |  | ID50/IC50 in TZM-bl [6]: 0.06 mg/L; ID50/IC50 in TZM-bl [14]: 0.04 mg/L; ID50/IC50 in TZM-bl [15]: 0.08 mg/L; ID50/IC50 in TZM-bl [16]: 0.05 mg/L; ID50/IC50 in TZM-bl [19]: 0.08 mg/L; ID50/IC50 in TZM-bl [20]: 0.09 mg/L; ID50/IC50 in TZM-bl [24]: 0.07 mg/L; ID50/IC50 in TZM-bl [29]: 0.07 mg/L
